Assay [1] concerns the target 40S ribosomal subunit in ribosome complexes (40S/PIC, monosomes, polysomes), marked by Rps2 (S. cerevisiae (endogenous in yeast)) (UniProt P25443). The assay is described as follows: co-sedimentation; yeast cultures crosslinked with 2% formaldehyde for 60 min on ice before lysis, 7.5–30% sucrose gradients (41,000 rpm, 5 h, SW-41), 0.63 ml fractions up to the 40S peak analysed by western blotting.

Assay [2] shares this target. In words: co-sedimentation; lysates of cycloheximide-treated yeast crosslinked with 1% formaldehyde (30 min on ice, quenched with 0.1 M glycine), 5–45% sucrose gradients, 10 fractions of 1 ml, western blotting of fractions (anti-His for eIF4B, Rps2, eIF4A, eIF4G).

Results on two molecules are retold here after paper PMC8762332.

UniProt P25443, sequence (P25443 whole entry, looked up, tested part not stated, one chain of several): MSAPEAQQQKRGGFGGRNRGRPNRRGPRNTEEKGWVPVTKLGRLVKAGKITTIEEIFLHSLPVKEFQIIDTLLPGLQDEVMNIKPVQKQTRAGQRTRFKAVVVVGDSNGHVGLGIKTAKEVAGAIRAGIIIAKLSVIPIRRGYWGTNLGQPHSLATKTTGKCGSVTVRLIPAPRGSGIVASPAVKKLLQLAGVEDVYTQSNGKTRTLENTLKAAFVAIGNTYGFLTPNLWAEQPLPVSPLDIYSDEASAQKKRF

On to “yeast eIF4B lacking the N-terminal domain, C-terminal hexahistidine tag (domain or fragment)”, for which the percent reduction of eIF4B in Rps2-containing fractions against WT in assay [1] worked out at 93%. Further, the percent of the protein in fractions that lack 40S subunits and ribosomes in assay [2] was found to be 80%.

B1: yeast eukaryotic initiation factor 4B, wild type, C-terminal hexahistidine tag (natural protein)
chain: MAPPKKTVKKMDLTSFLNDDTFGSSWAEEDVDLNKITIPIETANANTIPLSELAHAKNNSNNTRSGGFGGSFGGRSRLDPALGGGSSDRREEYPVPDAPPYRAVINNIPWDITPEGVQAWVEDGLVKPEAVEEVVLPKNLRDPTRLKGNAFVTLKERADLVAVLKFNGTKLNERTVYVSVAAPRRGGGADVDWSSARGSNFQGDGREDAPDLDWGAARGSNFRGPRREREEVDIDWTAARGSNFQGSSRPPRREREEVDIDWSAARGSNFQGSSRPPRREREEPDIDWSAARGSNFQSSSRPPRREREEPDIDWSAARGSNFQSSSRPPRREREKEEPALDWGAARGAQFGKPQQTKNTYKDRSLTNKKTTDEQPKIQKSVYDVLRTEDDDEDEEAEKQNGDAKENKVDAAVEKLQDKTAQLTVEDGDNWEVVGKK
As to B1, the percent of the protein in Rps2/40S subunit-containing fractions in assay [2] came out at 55%.
